Data from paper PMC8770954.

How the values were obtained:
Assay in all cases: SPR; imaging SPR (IBIS MX96); IgG immobilised on a carboxymethyldextran sensor (CMD200M) by carbodiimide chemistry with a Continuous Flow Microspotter, printed at 300 and 150 nM; soluble receptor as analyte from 20 uM, 1:3 over 8 points; 5 min association and 5 min dissociation; equilibrium KD (Scrubber 2)
[1] = target: RhDH677.3 IgG1 (rhesusized variant of human DH677.3) (rhesus macaque (Macaca mulatta))
[2] = target: RhDH827 IgG1 (rhesusized variant of human DH827) (rhesus macaque (Macaca mulatta))
Sequence of RhDH827 IgG1 (rhesusized variant of human DH827) (rhesus macaque (Macaca mulatta)) (heavy, as listed by the source, chain 1 of 2): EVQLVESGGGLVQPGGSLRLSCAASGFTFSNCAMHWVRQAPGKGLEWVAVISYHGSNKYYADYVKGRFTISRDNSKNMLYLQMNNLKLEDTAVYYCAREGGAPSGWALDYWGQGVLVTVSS
Sequence of RhDH827 IgG1 (rhesusized variant of human DH827) (rhesus macaque (Macaca mulatta)) (light, as listed by the source, chain 2 of 2): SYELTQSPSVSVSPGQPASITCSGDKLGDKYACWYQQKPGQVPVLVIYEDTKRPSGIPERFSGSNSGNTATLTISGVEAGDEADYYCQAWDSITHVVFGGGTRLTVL

[3] = target: Rh7B2 IgG1 (rhesusized variant of human 7B2) (rhesus macaque (Macaca mulatta))
Sequence of Rh7B2 IgG1 (rhesusized variant of human 7B2) (rhesus macaque (Macaca mulatta)) (heavy, as listed by the source, chain 1 of 2): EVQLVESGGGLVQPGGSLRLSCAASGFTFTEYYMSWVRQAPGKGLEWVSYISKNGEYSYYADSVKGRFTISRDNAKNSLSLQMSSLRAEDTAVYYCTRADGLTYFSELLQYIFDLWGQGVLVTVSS
Sequence of Rh7B2 IgG1 (rhesusized variant of human 7B2) (rhesus macaque (Macaca mulatta)) (light, as listed by the source, chain 2 of 2): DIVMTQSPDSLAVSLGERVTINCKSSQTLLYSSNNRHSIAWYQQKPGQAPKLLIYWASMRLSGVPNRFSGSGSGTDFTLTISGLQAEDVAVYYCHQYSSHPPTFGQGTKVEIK

Sequence of RhDH677.3 IgG1 (rhesusized variant of human DH677.3) (rhesus macaque (Macaca mulatta)) (heavy, as listed by the source, chain 1 of 2): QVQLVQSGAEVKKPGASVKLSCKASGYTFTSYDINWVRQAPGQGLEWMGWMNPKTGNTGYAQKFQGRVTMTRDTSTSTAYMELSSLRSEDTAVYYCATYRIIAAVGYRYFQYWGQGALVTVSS
Sequence of RhDH677.3 IgG1 (rhesusized variant of human DH677.3) (rhesus macaque (Macaca mulatta)) (light, as listed by the source, chain 2 of 2): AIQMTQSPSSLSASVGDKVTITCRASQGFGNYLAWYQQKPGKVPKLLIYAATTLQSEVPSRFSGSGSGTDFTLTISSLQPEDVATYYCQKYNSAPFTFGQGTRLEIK
Sequence of human FcγRIIIa (F158) (P08637 17-208): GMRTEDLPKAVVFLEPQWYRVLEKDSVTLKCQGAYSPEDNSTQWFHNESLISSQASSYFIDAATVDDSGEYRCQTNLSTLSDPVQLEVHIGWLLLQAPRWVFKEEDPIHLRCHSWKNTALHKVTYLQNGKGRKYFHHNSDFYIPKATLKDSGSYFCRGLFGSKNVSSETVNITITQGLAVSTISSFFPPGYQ

Row | Kd [1] | Kd [2] | Kd [3] | Substance
1 | 3.8 µM | 4.1 µM | 3.8 µM | human FcγRIIIa (F158) (from UniProt P08637 17-208) (receptor)
2 |  | 3.7 µM | 4.4 µM | human FcγRIIa (H131) (from UniProt P12318 34-217) (receptor)
3 | 7.9 µM |  | 8.5 µM | human FcγRIIb (from UniProt P31994 43-217) (receptor)
4 | 4.7 µM | 5.7 µM | 6 µM | rhesus macaque FcγRIIa-1 (receptor)
5 | 4.9 µM | 5.5 µM | 5.5 µM | rhesus macaque FcγRIIa-2 (receptor)
6 | 6.2 µM | 6.9 µM | 7.7 µM | rhesus macaque FcγRIIa-4 (receptor)
7 | 3.7 µM | 3.7 µM | 3.7 µM | rhesus macaque FcγRIIb-1 (receptor)
